# Changes are numbered by the printed parent chain.
# B1: scFv H3 (scFv)
# scFv: QVQLQESGPGLVKTSETLSLTCAVSGYSISSGYYWGWIRQPPGKGLEWIGSISHTGNTYYNPPLKSRVTISVDTSKNQFSLKLSSVTAADTAVYYCARFMGFGRPEYWGKGTLVTVSSGGGGSGGGGSGGGGSALSSELTQDPPVSVALGQTVTLTCQGDSLRTYYASWYQQKSGQAPILLLYGKHKRPSGIPDRFSGSTSGDTASLTITGAQAEDEADYYCNSRDSSGNPHVLFGGGTQLTVL
# B2: scFv H4 (scFv)
# scFv: B1 scFv with F99W, M100L
# B3: scFv L4 (scFv)
# scFv: B1 scFv with F99G, M100G, F102I, G103S, N223S, S224T, D226S, S228K
# B4: scFv L6 (scFv)
# scFv: B1 scFv with F99G, M100G, F102I, G103S, N223M, D226S, S227I, S228W
# B5: scFv H6 (scFv)
# scFv: B1 scFv with M100F
# B6: scFv L12 (scFv)
# scFv: B1 scFv with F99G, M100G, F102I, G103S, N223V, S224A, D226G, S227T, S228R
# B7: scFv L23 (scFv)
# scFv: B1 scFv with F99G, M100G, F102I, G103S, N223S, S224A, D226S, S227V, S228R
# B8: scFv L13 (scFv)
# scFv: B1 scFv with F99G, M100G, F102I, G103S, N223V, S224T, D226N, S227R, S228Y
# B9: scFv L25 (scFv)
# scFv: B1 scFv with F99G, M100G, F102I, G103S, N223T, S224T, D226S, S227N, S228K
# B10: scFv L5 (scFv)
# scFv: B1 scFv with F99G, M100G, F102I, G103S, N223A, D226S, S228K
# B11: scFv L14 (scFv)
# scFv: B1 scFv with F99G, M100G, F102I, G103S, N223M, S224A, D226S, S227R, S228K
# B12: scFv L11 (scFv)
# scFv: B1 scFv with F99G, M100G, F102I, G103S, N223S, D226S, S227R, S228H
# B13: scFv L21 (scFv)
# scFv: B1 scFv with F99G, M100G, F102I, G103S, N223A, S224T, D226A, S227V, S228R
# B14: scFv L10 (scFv)
# scFv: B1 scFv with F99G, M100G, F102I, G103S, N223I, D226S, S227I, S228Y
# B15: scFv L3 (scFv)
# scFv: B1 scFv with F99G, M100G, F102I, G103S, N223V, D226A, S227V, S228V
# B16: scFv L15 (scFv)
# scFv: B1 scFv with F99G, M100G, F102I, G103S, N223S, S224T, D226A, S227I, S228H
# B17: scFv L18 (scFv)
# scFv: B1 scFv with F99G, M100G, F102I, G103S, N223V, S224T, D226S, S227V, S228K
# B18: scFv L17 (scFv)
# scFv: B1 scFv with F99G, M100G, F102I, G103S, N223S, S224T, D226S, S227R, S228K
# B19: scFv L24 (scFv)
# scFv: B1 scFv with F99G, M100G, F102I, G103S, N223I, S224A, D226S, S227N, S228K
# B20: scFv L2 (scFv)
# scFv: B1 scFv with F99G, M100G, F102I, G103S, N223V, S224A, D226S, S227V, S228V
# B21: scFv H5 (scFv)
# scFv: B1 scFv with M100L
# B22: scFv L20 (scFv)
# scFv: B1 scFv with F99G, M100G, F102I, G103S, N223V, D226S, S227A, S228K
# B23: scFv L19 (scFv)
# scFv: B1 scFv with F99G, M100G, F102I, G103S, N223V, S224A, D226A, S227V, S228R
# B24: scFv L9 (scFv)
# scFv: B1 scFv with F99G, M100G, F102I, G103S, N223V, S224A, D226S, S227N, S228K
# B25: scFv L8 (scFv)
# scFv: B1 scFv with F99G, M100G, F102I, G103S, N223T, S224T, D226S, S227T, S228Q
# B26: scFv L16 (scFv)
# scFv: B1 scFv with F99G, M100G, F102I, G103S, N223V, S224T, D226S, S227A, S228K
# B27: scFv L1 (scFv)
# scFv: B1 scFv with F99G, M100G, F102I, G103S, N223A, D226S, S227V
# Molecular target: human IL-21R expressed on cells (human, UniProt Q9HBE5 20-538)
# Test: cell-based or functional assay
# human IL-21R expressed on cells, sequence (Q9HBE5 20-538 limits assumed): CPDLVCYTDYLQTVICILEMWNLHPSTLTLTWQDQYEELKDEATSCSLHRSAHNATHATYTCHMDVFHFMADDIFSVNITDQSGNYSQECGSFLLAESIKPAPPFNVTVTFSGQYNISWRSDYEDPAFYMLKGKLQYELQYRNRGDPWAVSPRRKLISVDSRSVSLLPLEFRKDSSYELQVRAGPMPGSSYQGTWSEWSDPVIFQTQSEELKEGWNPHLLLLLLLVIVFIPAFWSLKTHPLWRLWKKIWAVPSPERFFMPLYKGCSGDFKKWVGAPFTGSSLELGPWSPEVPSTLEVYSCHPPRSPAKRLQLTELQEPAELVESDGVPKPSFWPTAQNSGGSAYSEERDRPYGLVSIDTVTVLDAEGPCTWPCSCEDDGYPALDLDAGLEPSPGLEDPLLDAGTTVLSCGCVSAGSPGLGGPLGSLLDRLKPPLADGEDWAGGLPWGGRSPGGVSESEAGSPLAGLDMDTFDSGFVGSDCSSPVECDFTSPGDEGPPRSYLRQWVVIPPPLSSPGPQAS
IC50 (nM) in Human IL-21R-BaF3 Neutralization Assay,IC50 (nM) in Human IL-21R-TF1 Neutralization Assay,Binder
7.7 nM,98.1 nM,B1
3.8 nM,9.3 nM,B2
2.1 nM,~60 nM,B3
5.9 nM,~150 nM,B4
13.8 nM,~150 nM,B5
2.6 nM,54.9 nM,B6
1.5 nM,15.3 nM,B7
11 nM,257 nM,B8
3.7 nM,33.1 nM,B9
2.1 nM,~20 nM,B10
3.2 nM,33.5 nM,B11
4.2 nM,38.3 nM,B12
9.4 nM,~100 nM,B13
15.1 nM,7 nM,B14
27.6 nM,~7 nM,B15
3.3 nM,30.3 nM,B16
3.7 nM,54.4 nM,B17
1.6 nM,60.3 nM,B18
2.4 nM,18.7 nM,B19
3.1 nM,37.5 nM,B20
7.9 nM,178 nM,B21
3.1 nM,57.5 nM,B22
4.5 nM,35.3 nM,B23
2.8 nM,27.7 nM,B24
4.1 nM,51.3 nM,B25
3.7 nM,67.4 nM,B26
3.7 nM,~55 nM,B27

# Molecular target: murine IL-21R expressed on cells (murine, UniProt Q9JHX3 20-529)
# Test: cell-based or functional assay
# murine IL-21R expressed on cells, sequence (Q9JHX3 20-529 limits assumed): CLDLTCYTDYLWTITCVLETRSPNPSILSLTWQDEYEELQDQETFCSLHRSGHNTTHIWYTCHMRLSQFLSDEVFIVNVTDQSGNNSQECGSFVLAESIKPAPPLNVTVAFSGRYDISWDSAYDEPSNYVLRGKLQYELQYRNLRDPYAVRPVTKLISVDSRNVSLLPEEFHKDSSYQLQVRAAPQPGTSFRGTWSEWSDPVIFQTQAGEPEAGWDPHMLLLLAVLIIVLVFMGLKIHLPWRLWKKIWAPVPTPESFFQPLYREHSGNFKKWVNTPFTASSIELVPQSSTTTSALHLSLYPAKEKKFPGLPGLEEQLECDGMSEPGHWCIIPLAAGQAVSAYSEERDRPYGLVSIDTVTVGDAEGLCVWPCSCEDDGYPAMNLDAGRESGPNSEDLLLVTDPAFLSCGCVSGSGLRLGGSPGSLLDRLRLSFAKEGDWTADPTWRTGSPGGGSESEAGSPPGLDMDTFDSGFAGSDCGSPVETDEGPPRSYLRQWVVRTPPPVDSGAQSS
row,IC50 (nM) in Murine IL-21R-BaF3 Neutralization Assay,Binder
1,25.7 nM,B1
2,0.29 nM,B4
3,87.8 nM,B6
4,1.25 nM,B8
5,15.6 nM,B9
6,38.5 nM,B10
7,6.49 nM,B11
8,10 nM,B12
9,162 nM,B13
10,13.8 nM,B15
11,53.5 nM,B16
12,8.34 nM,B17
13,2.66 nM,B18
14,3.73 nM,B19
15,2.41 nM,B20
16,53.7 nM,B21
17,15.4 nM,B22
18,13.6 nM,B23
19,3.61 nM,B24
20,715 nM,B25
21,4.71 nM,B26
22,28.8 nM,B27
